Measured values as given in the supplement of paper PMC9170038.

The sequences below were run on MS2 coat protein (assay: apparent KD of MS2 coat protein; higher = weaker reporter binding). Conditions: Eterna round: R107; input ligand: arginine 13.2 mM.
How it was run: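 Designed RNA switches were made by on-chip transcription from Illumina sequencing clusters and then titrated with SNAP-549-labelled MS2 coat protein. Twofold steps ran from 0.7 or 1.5 nM to 3 µM, each lasting 0.8–1.5 h early and 10–20 min late, in 100 mM Tris-HCl pH 7.5, 80 mM KCl, 4 mM MgCl2, without or with constant ligand. Apparent KD is the per-design median of normalised cluster binding-curve fits.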

Sequence	apparent KD of MS2 coat protein [nM]
ACGGAGAUUGCUAAAUGUUGGCGAGCGGAUACCAGCCUAUAAUCGGGCCCUUGGCAGCCGACAUGAGGAUCACCCAUGUAAACAA [Gelelaor]	12.3

Same assay, conditions: Eterna round: R107; input ligand: none

Sequence	apparent KD of MS2 coat protein [nM]
UUAAUCUUUAUUGAAAACAAUAAAGCAGAAGGAGCGUGAUAAAACACAGGUAGGUCGCUGAAGGGAACAUGAGGAUCACCCAUGU [AstrosSSArgA#13]	26.6
ACAUGAGGAUCACCCAUGUACAUAAGGGAAGGAGCGCGGUGAGACGCAGGUAGGUCGCCCAUAAUAACAAACAUUAAAUUCAUGU [#25 Same State - Arginine A]	17.7
UCGUAGCUAGGAAGGAGCGCAUACUUCACAUGAGGAUCACCCAUGUCGAGACGUGAGUCAGUGCAGGUAGGUCGCCUAGCUAUGA [Same State - Arginine B (Freestyle 26)]	17.6
GGACUAACCAGAAGGAGCGACACGCAGAAACUGCUAUUUCCUCCGCACGAGGAUCACCCGUGUCAGGUAGGUCGCUGGUUAGUCG [ArgBX 28]	19.5
GAUGAUAUUGCAGAUACCAGACACAUGAGGAUCACCCAUGUCGCUGGGUCGCUGGGUCGUGUCCCUUGGCAGCUGCGAUAUCAUC [Tibet]	20.3
AGCUCGCAUCCUCUAGCGUCAAAGACGCGUCGAGGACCGGUACGGCCGCCACUCGACUUGAGGAUCACCCAGGUCAAAGCGAGCA [TrypAX 13 #SwitchBubble #AlternativeMS2 #MS2Late #CuTurnoff]	545
GGCAGUCAUAGCAGGGCAAAUAUACUCGAAGGAGCGUCAUAGUAGGCAGGUAGGUCGCGAGACAUGAGGAUCACCCAUGUAGAGA [uuumullin]	68.9
ACAUGAGGAUCACCCAUGUACAUGAGGGAAGGAGCGGUACAUGUGCCAGGUAGGUCGCCCAACAGCAUCAGCCAUGUACAUCAGC [ppsmullin]	113
AGAGUCAGACAAAAGUCUGGCUCAGCCGAAGGAGCGUCCGAAAGGACAGGUAGGUCGCGGUUACCUGAGGAUCACCCAGGUUCCU [ArgAS 24 #OpenEnded #AlternativeMS2]	139
GCUGCCAUACGAAGGAGCGCUGGUGUAAUGAGGCGAACAUGAGGAUCACCCAUGUGGCAUAAGCAGGUAGGUCGCGUAUGGCAGC [EAB #16]	17.2
AAACGUUGCUGCGAUACCAGACAUGAGGAUCACCCAUGUACCAAGGUAACCGAAAGGCAUGUCCCUUGGCAGCGCAGCAACGAAA [MAT - Exclusion Theophlline B - Mod of Eli - D17]	11.1
GACGGUACGUCGGCAAAGCCGAUGUGCCAGCGAGGACCGGUACGGCCGCCACUCGUACAUGAGGAUCACCCAUGUCCGGUCCGUC [Omei Trp SS A C v3]	122
CGUGCUAGGGCGGCCGCCACUGUGGCUACGGUACAUGAGGAUCACCCAUGUUUGUGGUUGAUCUACAGGACCGGGCCCUGGCACG [Radiaerdi]	107
AGAGUUAGACAAAAGUCUAGCUCACCAGAAGGAGCGUCCGAAAGGACAGGUAGGUCGCUGGUGCACGAGGAUCACCCGUGUUCCU [ArgAS 21 #OpenEnded #AlternativeMS2]	80.6
GCAGUGGGUUAUAAGUAAUAGAAUUCUGAAGGAGCGUGAUGAAACACAGGUAGGUCGCAGGAACAUGAGGAUCACCCAUGUACGG [Same State Arginine A GF20]	58.7
GGCACCAGGCGAAGGAGCGUGAAGACAUGAGGAUCACCCAUGUAGAGGCCCGGACAGGGUUCGCAGGUAGGUCGCGCCUGGUGCC [#1 Same State - Arginine B Attempt #9 (HarryS)]	16.2
ACGGAGAUUGCUAAAUGUUGGCGAGCGGAUACCAGCCUAUAAUCGGGCCCUUGGCAGCCGACAUGAGGAUCACCCAUGUAAACAA [Gelelaor]	121

Same assay, conditions: Eterna round: R107; input ligand: theophylline 20 uM

Sequence	apparent KD of MS2 coat protein [nM]
UUAAUCUUUAUUGAAAACAAUAAAGCAGAAGGAGCGUGAUAAAACACAGGUAGGUCGCUGAAGGGAACAUGAGGAUCACCCAUGU [AstrosSSArgA#13]	32
ACAUGAGGAUCACCCAUGUACAUAAGGGAAGGAGCGCGGUGAGACGCAGGUAGGUCGCCCAUAAUAACAAACAUUAAAUUCAUGU [#25 Same State - Arginine A]	25.5
UCUUACUAUAGUGAUACCAGACGUACAUGAGGAUCACCCAUGUUACAUUCUUGGUUAAAAGUCCCUUGGCAGCACGAUUUGUUCG [JR_Nu_ExcTheophyB_Sub026]	10.8
AACAUGAGGAUCACCCAUGUGUCCCUUGAUACCAGUCCCAUGUGAGACCCUUGGCAGCAAACAUGAGGAUCACCCAUGUCCCAUG [Same State Theophylline A 3]	119
AAAGGCGGGCAGGAUACCAGCGCUAACAUGAGGAUCACCCAUGUACAAAUAAUAACAUGGUGCCCUUGGCAGCCUGGGCGUCUGC [Usedlati]	150
UAUAUAUAUCACUAACUGUUCUUGAGGUCUCGAGGACCGGUACGGCCGCCACUCGUGCCGCCUCACAUGAGGAUCACCCAUGUCC [XTryp A #2]	79.4
UCGUAGCUAGGAAGGAGCGCAUACUUCACAUGAGGAUCACCCAUGUCGAGACGUGAGUCAGUGCAGGUAGGUCGCCUAGCUAUGA [Same State - Arginine B (Freestyle 26)]	22.3
AUGUCGUUGAAUACAGCGGCAUGGAGUGAUACCAGAAUGAUCAAAUUCCCUUGGCAGCAUGACAUGAGGAUCACCCAUGUUCGAU [SSTheo A #15]	61.3
AGCUCAUAGAGUGAUACCAGACUACAUGAGGAUCACCCAUGUUUCUUUUGGUUAUCAUGUGUCCCUUGGCAGCACAAGAAGAGCA [JR_ExcTheophyB_Sub015]	20.2
AGACAUGAGGAUCACCCAUGUAGUAUGGAUACCAGAUCCAGAUUUAUCCCUUGGCAGCUGUGGUACAGCGUUGCAACGCUCCUAG [Exclusion - Theophylline A (Freestyle 14)]	38.7
UGUCUAGUAAUCGAUACCAGCUACAUGAGGAUCACCCAUGUAGUUCGAACGGCCGCAUGUAGCCCUUGGCAGCGAAUAGUUACAU [Onbitelege]	32.8
GGACUAACCAGAAGGAGCGACACGCAGAAACUGCUAUUUCCUCCGCACGAGGAUCACCCGUGUCAGGUAGGUCGCUGGUUAGUCG [ArgBX 28]	25.4
GAUGAUAUUGCAGAUACCAGACACAUGAGGAUCACCCAUGUCGCUGGGUCGCUGGGUCGUGUCCCUUGGCAGCUGCGAUAUCAUC [Tibet]	47.8
AGCUCGCAUCCUCUAGCGUCAAAGACGCGUCGAGGACCGGUACGGCCGCCACUCGACUUGAGGAUCACCCAGGUCAAAGCGAGCA [TrypAX 13 #SwitchBubble #AlternativeMS2 #MS2Late #CuTurnoff]	488
AUUAAUAGUUGUGAUACCAGACGAACAUGAGGAUCACCCAUGUAACUUUUAGGUGUUGUAGUCCCUUGGCAGCACUAUGUAGUUA [JR_SSTheophyB_Sub013]	44.5
GGCAGUCAUAGCAGGGCAAAUAUACUCGAAGGAGCGUCAUAGUAGGCAGGUAGGUCGCGAGACAUGAGGAUCACCCAUGUAGAGA [uuumullin]	46
AACAUACAUGAGGAUCACCCAUGUCACGAUACCAGAUACAUGAGGAUCCCUUGGCAGCGUCAUGAGGAUCACCCAUGUUGUACAU [Exclusion Theophylline A 2]	22.7
ACAUGAGGAUCACCCAUGUACAUGAGGGAAGGAGCGGUACAUGUGCCAGGUAGGUCGCCCAACAGCAUCAGCCAUGUACAUCAGC [ppsmullin]	117
